# Test results published in the nanobody polyreactivity screen of Harvey et al. (2022).
# Experiment: yeast display, Sf9 membrane polyspecificity reagent, FACS + sequencing; frameworks hold sequencing errors
# Method in brief: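 In a synthetic yeast display library (Saccharomyces cerevisiae BJ5465), nanobody expression was induced with galactose for 36–48 hours. FACS gates were set low and high (top ~1%) using anti-HA fluorescence for expression and streptavidin fluorescence for binding of the Sf9 membrane reagent. Each polyreactivity label is drawn from the gate of origin.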
row,Sequence,polyreactivity (PSR sort gate)
1,QVQLVESGGGLVQAGGSLRLSCAASGRTFGPYAMGWYRQAPGKDSDLVATISWNGGSTYYADSVKGRFTISRDYAKNSVYLQMNSLKPEDTAVYYCAARHWSQSWKYGYWGQGTQVTVSS,high polyreactivity
2,QVQLDESGGGLVQAGGSHRLSCAASGYIFGYYAMGWSRQAPGKERELVAAISKSGTDTYYADSVKGRFTISRDYAKNTVFLQMNSLKPEDTAVYYCNALLRGYSYGYDYWGQGTQVTVSS,high polyreactivity
3,QVQLVESGGGLVQAGGSLRLSCAASGSTFNYYAMGWYRQAHGTERELFAAITYRGGSTYYADSVKGRFTISRDNAKNTVYLHMNLLKPEDTAVYYCNARQVRYMYAQDEGYDYWGLGTQVTVSS,high polyreactivity
4,QVQLVESGGGLVQAGGSLRLSCAASGRIDRPYAMGLYRPAPGKERELVAAISRRGGSTYYADSVKGRFTISRDNAKNTVYLQMKSLKPEDTAVYYCAADYWYESLRLQGIQGLDYWGQGTQVTVSS,high polyreactivity
5,QDQHVESGGGLVQAGGSLRLSCAASGRTFRLYAMGWYRQAPGKERELVAAITRGGRTNYADSVKGRFTISRDNAKNTVYLQMNSLKPEDTAVYYCAARYVERHTDYYYWGQGTQVTVSS,low polyreactivity
6,QDQLVESGGGLVQAGGSLRLSCAASGLISSINAMGWYRQAPGKERELVAAISFSGGRTYYADSVKGRFTISRDNAKNTVYLQMNSLKPEDTAVYYFNAVSGGHRSRYGYWGQGTLVTVSS,high polyreactivity
7,QVQLVESGGGLVQAGGSLRLSCAASGSIFRVYAMGWYRQAPGKERELVAAISSSGDSTYYADSVKGRFTISRDNAKNTVYLQMNSLKPEDTAVYYCAADVKQRVKSSTMYYWGQGTQVTVSS,high polyreactivity
8,QVQLVESGGGLVQAGGSLRLSCAASGITFDGYAMGWYRQAPGKERELVAAITYSGGRTYYADSVKGRFTISRDNAKNTVYLQMNCLKPDDTAVYYCAVVSRRLYEYDYWGQGTQVTVSS,high polyreactivity
9,QVQLVESGGGFVQAGGSLRLSCAASGNIFESYGMGWYRHAPGKERELVATINSSSGSTYYADSVKGRFTISRDNAKNTVYLQMNSLKPEDTAVYYCAAEWYPYPWGYGYWGQGTQVTVSS,low polyreactivity
10,QVQLVESGGGLVQAGGSLPLSCAASGITLYLYVMGWYRQAPGKEREFVAAIRWAGGSTYYADSVKGRFTISRDNAKNTVYLHMNSLKPEDTAVYYCNAEVYGYYSARRPGYEYWGQGTQVTVSS,low polyreactivity
11,QVHLVESGGGLVQAGGSLRLSCAASGSIFQPYAIRWYRQAPGKERELVAAISSSGGSTTYADSVKGRFTISRDNAKNTVYLQMTSLKPEDTAVYYCAADSADDMGYWGQGTQVTVSS,low polyreactivity
12,QVQLVESGGGLVQAGGSLRLSCAASGGIFHSNAMGWYRQAPGKERELVAAISYSGGSTYYADSVKGRFTISRDNAKNTVYLQMNSLKPEDTAVYYCAKRYYGSPQLRYYYWGQGTQVTVSS,high polyreactivity
13,QDQLVESRGGLVQAGGSLSISCAASGFTFRYYAMGWYRQAPGKERELVAGISWRGGSTNYADSVKGRFTISRDNAKNTVYFQMNSLNPDDSEVYSCNAVSYSFPILRVRPTWYDYWGQGTQVTVSS,high polyreactivity
14,QVQLVESGGGLVQAGGSLRLTCAASGITFRKYAMGWYRQAPGKERELVAGIRYSGSSTYYADSVKGRFTISRDNAKNTVYLQMNSLKPEDTAVYYGATGGYVWYRSVNVWTRMDYWGQGTQVTVSS,high polyreactivity
15,QVQLVESGGGLVQAGGSLPLSCASSGFTLVTYAMGWYRQAPGKERELVAAISSSGTSTYYADSVKARFTISRDNAKNTVYLQMNSLKPEDTAVYYCAVDDTHPFGPDGGGDYWGQGTQVTVSS,low polyreactivity
16,QVQLVESGGGLVQAGGSLRLSCAASGRIFYAYAMGWYRQAPGKERELVAAISWSGGSTYYADSVKGRFTISRDNAKNTVNLQMNSLKPEDTAVYYCNADYWGQGTQVTVSS,low polyreactivity
17,QVQLVESGGGLVQEGGSLRLICAASGSTFGVNAMGWYRQAPGKERELVAAISSSGYSTYADSVKGRFTISRDNAKNTVYLQMNSLKPEDTAVYYCNKTTLLTVEYDYWGQGTQVTVSS,low polyreactivity
18,QVQLVESGGGLVQAGGSLRLSCAASGFTFRGYVMGGYRQAPGKERELVAAITNIGTSTYYAHSVKGRFTISRDNAKNTVYVQMNSLKPEDTGVFFCAARLSTKFYYWGQVTQVTVSS,low polyreactivity
19,QDQLVESGGGLVQAGGSLRLSCAASGLTFGRYAMGWYRQAPGKERELVAAITWNGDGTYYADSVKGRFTISRDNAKNTVYLQMNSQKPEDSAVFYCAADYYTYLYGRYNYWGQGTQVTVSS,low polyreactivity
20,QVQLVESGGGLVQAGGSLRLSCAASGIILHYYAMGWYRQAPGKERELVAAISARGGRTYYADSVKGRFTISRDNANNTVYLQMNSLKPEDTAVYYCAAVTVASPTRMDYWGQGTQVTVSS,high polyreactivity
21,QVQLVESGGGLVQAGGSLRLSCAASGFTFYLYTMAWYRQAPGKERELVATITSDGGTNYADSVKGRFTISRDNAKNTVYLQMNSLKPEDTAVYYCARTARRRYQPYEYWGQGTQVTVSS,low polyreactivity
22,QVQLEDSGGGLVQAGGSLRLSCAASGSIFRRNFMGWNRQAPGKERELVAAISWSGDRTYYADSVKGRFTISRDNAKNTVYLQMNSLKPEDTAVYYCNAVYWPYRYDYWGQGTQVTVSS,high polyreactivity
23,QVQIVESGGGLVQEGGSLRISCAASGIIFRRYAMGWYRQAPGKERELVATITRSGSTNYAESVKGRFTISRDNAKNSVYLQMNSLKPEDTAVYYCNADDIRGGVGYDYWGQGTQVTVSS,high polyreactivity
24,QVQLVESGGGLVQAGGSLRLSCAASGRTFPYNTMGWYRQAPGKERELVASISYRGGTYYADSVKGRFTISRDNAKNTVYLQMNSLKPEDTAVYYCNAVYYFSPSYRGYYWGQGTQVTVSS,high polyreactivity
25,QVQLVESGGGLVQAGGSLRLSCAASGSTFRYYAMGWYRQAPGKERELVAAISTSGGRTYYADSVKGRFTISRDNAKNTVYLQMNSLKPEDTAVYYCNARESRGYSDQTWKYYYWGQGTQVTVSS,high polyreactivity
26,QVQHVETGGGLVQAGGSLRLSCAASGFIFSQYAMGWYRQAPGKERELVAAISSGSTYADSVKGRVTISRDNAKNTVYLQMNSLKPEDTAVYYCAVDYHQAWPSADYWFEYVYWGQGTQVTVSS,low polyreactivity
27,QVQLVESGGGLVQAGGSLRLSCAASGFTFVRYTMGWYRQAPGKERELVAVIRRGGSTYYADSVKGRFTISRDNAKNTVYLPMKSLKPEDTAVYYCNALSALAVEDGYWGQGTQVTVSS,low polyreactivity
28,QVQLVESGGGLVQAGGSLRLSCAASGGTLFTNAMGWYRQAPGKERELVAAISWRGGRTYYADSVKGRFTISRDNAKNTVYLQMNSLKAEDTAVYYCAAASAAGYDYWGQGTQVTVSS,low polyreactivity
29,QVQLLQTGGGLVQAGGSLRLSCAASGSNFVIYAMGWYIQAPWNERELVATISGGGRTNYADSLKGRFTISRDNAKNTVYLQMNSLKPEDTAVYYCNGDQYGSYLGVGFDYWGQGTQVTVSS,high polyreactivity
30,QVQLVESGGGLVQAGGSLRLSCAASGSTFTTNAMGLYRQEPGKERELVAAITSTGSTYADSVKGRFTISRDNAMNTVYLQMNSLKPEDTAVYYCAADTQWTTPYDYWGQGTQVTVSS,low polyreactivity
